Residue numbers refer to the chain shown, from its start.
B1: 3E05_var6 (antibody, human IgG1, V domains shown)
VH: QVQLVESGGGLVKPGGSLRLSCAASGFTFSSYTMSWVRQAPGKGLEWVSYISSGGGNTYYADSVKGRFTISRDNAKNSLYLQMNSLRAEDTAVYYCARHDYYDGGLYYAMDYWGQGTLVTVSS
VL: DIVMTQSPDSLAVSLGERATINCKSSQSVDYDGDSSMNWYQQKPGQPPKLLISAASTLESGVPSRFSGSGSGTDFTLTISSLQAEDVATYYCQQTNEDPPTFGGGTKVEIK
notes: also called 3E05 VL2VH2 (var_6); 3E05VL2VH2 (var_6)
B2: 3E05_var12 (antibody, human IgG1, V domains shown)
VH: B1 VH with Q1E, S49A, N57Q, A61P, D103E
VL: B1 VL with S53Y
notes: also called 3E05 VL3VH4 (var_12); 3E05VL3VH4 (var_12)
B3: 3E05_var14 (antibody, human IgG1, V domains shown)
VH: B1 VH
VL: B1 VL with S25A, D32E, T89V
notes: also called 3E05 VL4VH2 (var_14); 3E05VL4VH2 (var_14)
B4: chimeric mAb 3E05 (parental mouse 3E05 VH/VL on human IgG1) (antibody, V domains shown)
VH: EVKLVESGGGLVKPGGSLKLSCAASGFTFSSYTMSWVRQTPEKRLEWVAYISSGGGNTYYPDSVKGRFTISRDNARNTLYLQMSSLRSEDTAMYYCARHDYYDGGLYYAMDYWGQGTSVTVSS
VL: DIVLTQSPASLAVSLGQRATISCKASQSVDYDGDSSMNWYQQKPGQPPKLLICAASTLESGIPARFSGSGSGTDFTLNIHPVEEEDAATYYCQQTNEDPPTFGGGTKLEIK
notes: also called 3E5; Parental 3E05
B5: CLEC4C (BDCA-2) protein used for cross-linking / mass spectrometry epitope mapping (receptor)
chain: NFMYSKTVKRLSKLREYQQYHPSLTCVMEGKDIEDWSCCPTPWTSFQSSCYFISTGMQSWTKSQKNCSVMGADLVVINTREEQDFIIQNLKRNSSYFLGLSDPGGRRHWQWVDQTPYNENVTFWHSGEPNNLDERCAIINFRSSEEWGWNDIHCHVPQKSICKMKKIYI
notes: also called BDCA2(CLEC4C)
B6: chimeric mAb 25E06 (antibody, human IgG1, V domains shown)
VH: EVKLVESGGGLVKPGGSLKLSCAASGFTFSSYTMSWVRQTPEKRLEWVAYISGVGGDTYYPDSVKGRFTISRDNARNTLYLQMSSLRSEDTAMFYCARHHYSHYFWYFDVWGAGTTVTVSS
VL: B4 VL with S35G, S36F, C53Y, T57N, T73A, T95S
notes: also called Parental 25E06
B7: chimeric mAb 21E06 (antibody, human IgG1, V domains shown)
VH: EVKLVESGGGLVKSGGSLKLSCEVSGFTFSSYTISWVRQTPEKRLEWVAYISSGGDNAYYPDSVKGRFTISRDNARNTLYLQMSSLRSEDTAMYYCARHLYYGDYFYVMDYWGQGTSVTVSS
VL: B4 VL with S35N, S36C, M37L, N38H, Y40F, C53Y, T57N, T95S
notes: also called Parental 21E06
B8: chimeric mAb 28B01 (antibody, human IgG1, V domains shown)
VH: B6 VH with S31Y, G53S, V54G, G56D, D57N, T58A, K65R, F94Y, H103N
VL: B4 VL with D32A, S36Y, M37V, C53Y, T57N, T95S
notes: also called 28B1; Parental 28B01

Each binder was assayed against T1, BDCA-2 (CLEC4C, CD303) on human plasmacytoid dendritic cells (purified pDC or pDC within PBMC) (human, UniProt Q8WTT0 1-213) (assay: cell-based or functional assay).
T1 sequence: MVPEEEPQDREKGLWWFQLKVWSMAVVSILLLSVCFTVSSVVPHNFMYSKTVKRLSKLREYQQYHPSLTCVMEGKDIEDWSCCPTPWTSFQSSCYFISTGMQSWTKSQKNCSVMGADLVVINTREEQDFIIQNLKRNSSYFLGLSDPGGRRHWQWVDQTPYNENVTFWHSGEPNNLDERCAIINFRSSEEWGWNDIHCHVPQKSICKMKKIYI

Row | Binder | IC50, ng/ml; inhibition of IFNα from ODN stimulated healthy donor PBMC [ng/mL] | IC90, ng/ml; inhibition of IFNα from ODN stimulated healthy donor PBMC [ng/mL]
1 | B1 | 12.3 | 110
2 | B2 | 14.3 | 127
3 | B3 | 19.3 | 173

Target: T1, BDCA-2 (CLEC4C, CD303) on human …
Experiment: cell-based or functional assay
Remark: another data set of the same source

Row | Binder | IC50, nM; inhibition of IFNα from ODN stimulated healthy donor PBMC [nM] | IC90, nM; inhibition of IFNα from ODN stimulated healthy donor PBMC [nM]
4 | B1 | 0.08 | 0.73
5 | B2 | 0.1 | 0.85
6 | B3 | 0.13 | 1.15

Each binder was assayed against T2, human BDCA-2-Fc (hIgG1-Fc-hBDCA-2) (human) (assay: SPR (BIAcore), comparison of KD).
T2 construct: also called huBDCA2-Fc
T2 sequence (chain, as listed by the source limits assumed): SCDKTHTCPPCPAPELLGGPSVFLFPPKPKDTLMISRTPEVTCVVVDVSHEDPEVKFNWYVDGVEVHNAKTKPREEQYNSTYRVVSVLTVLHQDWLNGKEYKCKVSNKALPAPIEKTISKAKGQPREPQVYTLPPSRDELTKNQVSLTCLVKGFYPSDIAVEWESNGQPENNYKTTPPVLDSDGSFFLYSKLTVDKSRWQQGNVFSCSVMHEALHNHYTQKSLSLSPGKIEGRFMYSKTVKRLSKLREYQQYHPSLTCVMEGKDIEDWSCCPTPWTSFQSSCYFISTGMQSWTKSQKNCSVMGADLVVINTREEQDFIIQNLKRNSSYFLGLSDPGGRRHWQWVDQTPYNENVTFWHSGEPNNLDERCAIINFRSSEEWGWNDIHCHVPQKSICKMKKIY

Row | Binder | fold higher affinity than parental wild type 3E05 and AC144 [fold]
7 | B1 | > 100
8 | B2 | > 100
9 | B3 | > 100

What follows are binders tested against T2, human BDCA-2-Fc (hIgG1-Fc-hBDCA-2) (assay: ELISA on plate-coated human BDCA2-Fc).
Protocol: 100 ul per well of 0.5 μg/ml of human BDCA2-Fc in PBS pH 7.4 was incubated overnight at 4 C. The wells were then washed 3 times with PBST (PBS+0.05% Tween 20) and then blocked with 250 ul 4% Skimmed Milk (Marvel, cat. no. 3023033 Lot no. 7169) in PBS for 120 min at RT. The wells were washed and then incubated with 100 ul per well of humanized mAbs at 3 fold dilutions (from 1 μg/ml to 0.001 μg/ml) in 1% Skimmed Milk PBS buffer at pH 7.4. After 60 min at RT the wells were washed 3 times in PBST and 100 ul of mouse anti-human IgG (anti-CH1-HRP; 1:1000, BD Pharmigen cat. no. 555788) or donkey anti-mouse IgG (anti-mouse IgG-HRP) at 1:5000 dilution (Jackson ImmunoResearch, Cat. no. 715-035-150) in 1% Skimmed Milk PBS was added. Development was with TMB (ThermoFisher, cat. no. 00-4201-56), 100 ul/well and the reaction stopped with 100 μl/well H2SO4 (cat. nr. J/8430/15, lot nr.) and the absorbance read at 450 nm. The EC50 was calculated using Graphpad Prism software. A negative (1% Skimmed Milk/PBS) and positive control (anti-BDCA-2, AC144, Miltenyi Biotec, cat. no. 130-090-690) were utilised in the assay.

Row | Binder | EC50 [nM]
10 | B1 | 0.29
11 | B2 | 0.33
12 | B3 | 0.32
13 | B4 | 0.3

Target: the molecule itself
Experiment: High-Mass MALDI mass spectrometry with chemical cross-linking
Protocol: For the characterization of BDCA2(CLEC4C)/3E5 (variant 12) complexes, the measurements were performed using an Autoflex II MALDI ToF ToF mass spectrometer (Bruker) equipped with a CovalX HM4 interaction module. The CovalX interaction module contains a detecting system designed to optimize detection up to 2 MDa with nano-molar sensitivity. […] In order to characterize CLEC4C we submitted the sample to trypsin, chymotrypsin, Asp-N, elastase and thermolysin proteolysis followed by nLC-LTQ-Orbitrap MS/MS analysis. For the characterization, a nLC Ultimate 3000-RSLC system in line with a LTQ-Orbitrap mass spectrometer (Thermo Scientific) was used. Sample preparation was as follows:
In order to determine the epitope of CLEC4C/3E5 complex with high resolution, the protein complexes were incubated with deuterated cross-linkers and subjected to multi-enzymatic cleavage. After enrichment of the crosslinked peptides, the samples were analyzed by high resolution mass spectrometry (nLC-LTQ-Orbitrap MS) and the data generated were analyzed using XQuest and Stavrox software.

Row | Binder | binding result
14 | B2 | no binding
15 | B5 | no binding

The binders below were run against T3, human BDCA-2 (CLEC4C) expressed on transfected U937 cells (human, UniProt Q8WTT0 1-213) (assay: flow cytometry (MFI titration) on cells expressing human BDCA-2).
T3 construct: also called cell expressed human BDCA-2; Q8WTT0
T3 sequence: T1 sequence
Protocol: (§1) Cells expressing human and cynomolgus BDCA-2 were resuspend at 2×10⁶ cells/mi in FACS buffer (2% FBS/PBS) and 50 μl of the cell suspension was added per well, in a 96-well V bottom plate. The plate was centrifuge and the supernatant discarded. 12 serial, 2-fold dilutions of mAbs, starting at 50 μg/ml (range 50-0.024 μg/ml), in FACS buffer were prepared and 25 μl of the mAb dilutions added to wells, in triplicate. The plate was then incubated for 60 min at room temperature then centrifuged and washed 3× with 150 μl FACS buffer. To each well was then added 25 μl goat-anti-human PE conjugate (or goat-anti-mouse in the case of AC144), diluted 1:200 in FACS buffer. The plates were incubated for 60 min at room temperature protected from light and centrifuged and washed 3× with 150 μl FACS buffer. 25 μl per well of 2% PFA 2% was added and incubated for 20 min at 4° C., protected from light and analysed on the iQue screener.
(§2) Serial dilutions of the 4 chimeric mAbs (50-0.25 ug/ml) were prepared and incubated with cells expressing human and cynomolgus BDCA-2. After staining, the median fluorescence intensity (MFI) of the cells was measured and the data points of the dilution series were fitted on a sigmoidal curve after normalization to determine the EC50 values.

Row | Binder | EC50 [µg/mL]
16 | B4 | 1.76
17 | B6 | 0.57
18 | B7 | 0.3
19 | B8 | 0.77

Target: T4, cynomolgus BDCA-2 expressed on transfected U937 cells (cynomolgus, UniProt Q8WTT0 1-213 (human entry))
T4 construct: also called cell expressed cynomolgus BDCA-2
T4 chain: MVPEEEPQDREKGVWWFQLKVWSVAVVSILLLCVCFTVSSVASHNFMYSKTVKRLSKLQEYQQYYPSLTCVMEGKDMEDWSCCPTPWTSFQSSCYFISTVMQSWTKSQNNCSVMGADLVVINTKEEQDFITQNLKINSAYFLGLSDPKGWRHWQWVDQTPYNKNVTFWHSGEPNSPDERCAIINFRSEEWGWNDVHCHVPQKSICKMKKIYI
Experiment: flow cytometry (MFI titration) on cells expressing cynomolgus BDCA-2
Protocol: as §1, §2

Row | Binder | EC50 [µg/mL]
20 | B4 | 2.6
21 | B6 | 1.35
22 | B7 | 0.92
23 | B8 | 0.79

These binders were tested against T2, human BDCA-2-Fc (hIgG1-Fc-hBDCA-2) (assay: SPR (BIAcore T200), huBDCA2-Fc immobilised on CM5 chip, mAb injected).
Protocol: A BIAcore T200 was used with BIAcore run buffer (HBS-EP) at pH7.4. 692RU of huBDCA2-Fc was immobilized to a CM5 chip (CFJB156) utilising 5 μg/ml of huBDCA2-Fc with the BIAcore EDC/NHS kit according to the manufacturer's instructions. Two-fold dilutions of the humanized mAbs were injected starting at 200 nM down to 3.1 nM with a contact time of 60 s at a flow of 30 or 60 ul/min at 25° C. followed by an off-rate wash for 5 minutes with BIAcore buffer. […] The BIAcore T200 software was used to calculate Ka (1/Ms), Kd (1/s) and the KD (nM).

Row | Binder | Kd [nM]
24 | B1 | < 0.01
25 | B2 | < 0.01
26 | B3 | < 0.01
27 | B4 | 0.35

From patent US20220162322A1 (CAPELLA BIOSCIENCE, published 2022)
